Experimental data reported in PMC5007788, “Heat Shock Factor 1 Is a Substrate for p38 Mitogen-Activated Protein Kinases” (Molecular and Cellular Biology, 2016).
“And” between values parts separate entries of the source, which are not always exact repeats. Equal entries are not always repeated.

T1: Heat shock factor 1 (HSF1), endogenous in MDA-MB-231 cells (human (endogenous in MDA-MB-231)), Q00613
T1 chain: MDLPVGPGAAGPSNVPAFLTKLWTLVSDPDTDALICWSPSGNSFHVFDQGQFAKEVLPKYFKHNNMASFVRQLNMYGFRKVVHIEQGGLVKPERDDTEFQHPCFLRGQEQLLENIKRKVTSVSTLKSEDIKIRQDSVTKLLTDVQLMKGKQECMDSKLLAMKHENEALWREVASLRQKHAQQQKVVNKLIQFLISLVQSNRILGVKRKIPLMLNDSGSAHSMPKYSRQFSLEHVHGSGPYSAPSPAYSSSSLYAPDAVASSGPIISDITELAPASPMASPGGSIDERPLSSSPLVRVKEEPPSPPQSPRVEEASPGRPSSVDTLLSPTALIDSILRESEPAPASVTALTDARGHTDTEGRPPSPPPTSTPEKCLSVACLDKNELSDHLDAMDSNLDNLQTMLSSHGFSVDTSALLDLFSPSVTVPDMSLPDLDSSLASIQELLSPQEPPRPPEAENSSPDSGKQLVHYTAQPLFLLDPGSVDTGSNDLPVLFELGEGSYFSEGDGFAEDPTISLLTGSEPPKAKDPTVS

B1: Heat shock factor 1 (HSF1), endogenous in MDA-MB-231 cells, Q00613 1-529 (natural protein)
chain: MDLPVGPGAAGPSNVPAFLTKLWTLVSDPDTDALICWSPSGNSFHVFDQGQFAKEVLPKYFKHNNMASFVRQLNMYGFRKVVHIEQGGLVKPERDDTEFQHPCFLRGQEQLLENIKRKVTSVSTLKSEDIKIRQDSVTKLLTDVQLMKGKQECMDSKLLAMKHENEALWREVASLRQKHAQQQKVVNKLIQFLISLVQSNRILGVKRKIPLMLNDSGSAHSMPKYSRQFSLEHVHGSGPYSAPSPAYSSSSLYAPDAVASSGPIISDITELAPASPMASPGGSIDERPLSSSPLVRVKEEPPSPPQSPRVEEASPGRPSSVDTLLSPTALIDSILRESEPAPASVTALTDARGHTDTEGRPPSPPPTSTPEKCLSVACLDKNELSDHLDAMDSNLDNLQTMLSSHGFSVDTSALLDLFSPSVTVPDMSLPDLDSSLASIQELLSPQEPPRPPEAENSSPDSGKQLVHYTAQPLFLLDPGSVDTGSNDLPVLFELGEGSYFSEGDGFAEDPTISLLTGSEPPKAKDPTVS
B2: Recombinant hexahistidine-tagged HSF1 wild-type (natural protein, human, UniProt Q00613 1-529, looked up)
chain: MDLPVGPGAAGPSNVPAFLTKLWTLVSDPDTDALICWSPSGNSFHVFDQGQFAKEVLPKYFKHNNMASFVRQLNMYGFRKVVHIEQGGLVKPERDDTEFQHPCFLRGQEQLLENIKRKVTSVSTLKSEDIKIRQDSVTKLLTDVQLMKGKQECMDSKLLAMKHENEALWREVASLRQKHAQQQKVVNKLIQFLISLVQSNRILGVKRKIPLMLNDSGSAHSMPKYSRQFSLEHVHGSGPYSAPSPAYSSSSLYAPDAVASSGPIISDITELAPASPMASPGGSIDERPLSSSPLVRVKEEPPSPPQSPRVEEASPGRPSSVDTLLSPTALIDSILRESEPAPASVTALTDARGHTDTEGRPPSPPPTSTPEKCLSVACLDKNELSDHLDAMDSNLDNLQTMLSSHGFSVDTSALLDLFSPSVTVPDMSLPDLDSSLASIQELLSPQELPRPPEAENSSPDSGKQLVHYTAQPLFLLDPGSVDTGSNDLPVLFELGEGSYFSEGDGFAEDPTISLLTGSEPPKAKDPTVS
notes: subcloned into pet15b (NdeI, XhoI); The vector pet15b is named; also called His-HSF1; HSF1 WT; source: E. coli BL21(DE3)pLysS, purified (nickel agarose resin, dialysis)
B3: Recombinant hexahistidine-tagged mutant S326A HSF1 (natural protein, human, UniProt Q00613 1-529, looked up)
chain: MDLPVGPGAAGPSNVPAFLTKLWTLVSDPDTDALICWSPSGNSFHVFDQGQFAKEVLPKYFKHNNMASFVRQLNMYGFRKVVHIEQGGLVKPERDDTEFQHPCFLRGQEQLLENIKRKVTSVSTLKSEDIKIRQDSVTKLLTDVQLMKGKQECMDSKLLAMKHENEALWREVASLRQKHAQQQKVVNKLIQFLISLVQSNRILGVKRKIPLMLNDSGSAHSMPKYSRQFSLEHVHGSGPYSAPSPAYSSSSLYAPDAVASSGPIISDITELAPASPMASPGGSIDERPLSSSPLVRVKEEPPSPPQSPRVEEASPGRPSSVDTLLAPTALIDSILRESEPAPASVTALTDARGHTDTEGRPPSPPPTSTPEKCLSVACLDKNELSDHLDAMDSNLDNLQTMLSSHGFSVDTSALLDLFSPSVTVPDMSLPDLDSSLASIQELLSPQELPRPPEAENSSPDSGKQLVHYTAQPLFLLDPGSVDTGSNDLPVLFELGEGSYFSEGDGFAEDPTISLLTGSEPPKAKDPTVS
notes: Heat shock factor 1, human, full-length cDNA from Addgene plasmid 32537 (P to L at position 448) in pet15b, with S326A made by site-directed mutagenesis; Made from the pet15b plasmid of m3; also called S326A mutant HSF1; HSF1 S326A; source: E. coli BL21(DE3)pLysS, purified (nickel agarose resin, dialysis)

Tests used:
[1] = target: T1, Heat shock factor 1 (HSF1), endogenous …; experiment: cross-linking; MDA-MB-231 cells treated with 20 uM PEITC for 3 h, fixed with 0.4% (wt/vol) paraformaldehyde in PBS, quenched with glycine; nuclear and cytoplasmic fractions; SDS-PAGE (10% gel), blot with anti-HSF1; conditions: remark: other sources report otherwise
[2] = target: the molecule itself; experiment: gel electrophoresis (NuPAGE NoVex Bis-Tris 10% gel); purified recombinant hexahistidine-tagged HSF1 (WT and S326A) run on NuPAGE; dimeric and trimeric species formed spontaneously beside the major band

| Binder | stoichiometry N [1] | stoichiometry N [2] |
| --- | --- | --- |
| B1 | 2 and 3 | – |
| B2 | – | 2 and 3 |
| B3 | – | 2 and 3 |
